Source: the RNAGym collection of RNA variant scans (doi:10.7554/elife.90254)

B1: LINE1-full (parent)
chain: UACGUAGGUGGUUUUCCCCUGAUAGUGCUAAGGGGGCCUGGAAGUUUGGACUGGGCAGAGCUCAACACAGCGUGGCAAAGUGGCUGUGGCUAGACUGCCUCUCUGGAUUCCUCGUCACUCAGCAGGGCAUCUCUGAGAGAAAUGCC

Variants of: B1
Assay: self-cleavage, relative activity (ratio to wild type); higher = more cleavage; in vitro, sequencing; the parent is a self-cleaving ribozyme

Row | Variant | self-cleavage
1 | UACGUAGGUGGUUUUCCCCUGAUAGUGCUAAGGGUGCCUGGAAGUUUGGACUGGGCAGAGCUCAACACAGCGUGGCAUAGUGGCUGUGGCUAGACUGCCUCUCUGGAUUCCUCGUCACUCAGCAGGGCAUCUCUGAGAGAAAUGCC | 2.1
2 | UACGUAGGUGGUUUUCCCCUGAUAGUGCUAAGGGGACCUGGAAGUUUGGACUGGGCAGAGCUCAACACAGCGUGGCAAAGGGGCUGUGGCUAGACUGCCUCUCUGGAUUCCUCGUCACUCAGCAGGGCAUCUCUGAGAGAAAUGCC | 1.08
3 | UACGUAGGUGGUUUUCCCCUGAUAGUGCUAAGGGGACCUGGAAGUUUGGACUGGGCAGAGCUCAACACAGCGUGGCAAAGAGGCUGUGGCUAGACUGCCUCUCUGGAUUCCUCGUCACUCAGCAGGGCAUCUCUGAGAGAAAUGCC | 2.04
4 | UACGUAGGUGGUUUUCCCCUGAUAGUGCUAAGGGGACCUGGAAGUUUGGACUGGGCAGAGCUCAACACAGCGUGGCAAAGUGGCUGUGGCUAGACUGCCUCUCUGGAUUCCUCGUCACUCAGCAGGGCAUCUCUGAGAGAAAUGCC | 1.16
5 | UACGUAGGUGGUUUUCCCCUGAUAGUGCUAAGGGUGCCUGGAAGUUUGGACUGGGCAGAGCUCAACACAGCGUGGCAAAGUGGCUGUGGCUAGACUGCCUCUCUGGAUUCCUCGUCACUCAGCAGGGCAUCUCCGAGAGAAAUGCC | 1.12
6 | UACGUAGGUGGUUUUCCCCUGAUAGUGCUAAGGGGACCUGGAAGUUUGGACUGGGCAGAGCUCAACACAGCGUGGCAAAGUGGCUGUGGCUAGACUGCCCCUCUGGAUUCCUCGUCACUCAGCAGGGCAUCUCUGAGAGAAAUGCC | 2.05
7 | UACGUAGGUGGUUUUCCCCUGAUAGUGCUAAGGGUGCCUGGAAGUUUGGACUGGGCAGAGCUCAACACAGCGUGGCAAAGUGGCUGUGGCUAGACUGCCUCUCUGGAUUCCUUGUCACUCAGCAGGGCAUCUCUGAGAGAAAUGCC | 1.09
8 | UACGUAGGUGGUUUUCCCCUGAUAGUGCUAAGGGUGCCUGGAAGUUUGGACUGGGCAGAGCUCAACACAGCGUGGCAAAGUGGCUGUGGCUAGACUGCCUCUCUGGAUUCCUCGUCACUCAGCAGGGCAUCUCUGAGAGAAAAGCC | 1.56
9 | UACGUAGGUGGUUUUCCCCUGAUAGUGCUAAGGGGACCUGGAAGUUUGGACUGGGCAGAGCUCGACACAGCGUGGCAAAGUGGCUGUGGCUAGACUGCCUCUCUGGAUUCCUCGUCACUCAGCAGGGCAUCUCUGAGAGAAAUGCC | 0.13
10 | UACGUAGGUGGUUUUCCCCUGAUAGUGCUAAGGGUGCCUGGAAGUUUGGACUGGGCAGAGCUCAACACAGCGUGGCAAAGUGGCUGUGGCUAGGCUGCCUCUCUGGAUUCCUCGUCACUCAGCAGGGCAUCUCUGAGAGAAAUGCC | 0.19
11 | UACGUAGGUGGUUUUCCCCUGAUAGUGCUAAGGGGACCUGGAAGUUUGGACUGGGCAGAGCUCAACACAGCGUGGCAAAGUGGCUGUGGCUAGACUGCCUCUCUGGAUUCCUCGUUACUCAGCAGGGCAUCUCUGAGAGAAAUGCC | 1.41
12 | UACGUAGGUGGUUUUCCCCUGAUAGUGCUAAGGGUGCCUGGAAGUUUGGACUGGGCAGAGCUCAACACAGCGUGGCAAAGUGGCUGUGGCUAGACUGCCUCUCUGGAUUUCUCGUCACUCAGCAGGGCAUCUCUGAGAGAAAUGCC | 1.51
13 | UACGUAGGUGGUUUUCCCCUGAUAGUGCUAAGGGGACCUGGAAGUUUGGACUGGGCAGAGCUCAACACAGCGUGGCAAAGUGGCUGUGGCUAGACUGCCUCCCUGGAUUCCUCGUCACUCAGCAGGGCAUCUCUGAGAGAAAUGCC | 1.14
14 | UACGUAGGUGGUUUUCCCCUGAUAGUGCUAAGGGGACCUGGAAGUUUGGACUGGGCAGAGCUCAACACAGCGUGGCAAAGUGGCUGUGGCUAGACUGCCUCUCUGGAUUCCUCGUCACUCAGCAGGGCAUCUCUGGGAGAAAUGCC | 1.43
15 | UACGUAGGUGGUUUUCCCCUGAUAGUGCUAAGGGUGCCUGGAAGUUUGGACUGGGCAGAGCUCAACACAGCGUGGCAAAGUGGCUGUGGCUAGACUGCCUCUCUGGAUUCCUCGUCACUCAGCAGGGCAUCUCUGAGAGUAAUGCC | 1.19
16 | UACGUAGGUGGUUUUCCCCUGAUAGUGCUAAGGGUGCCUGGAAGUUUGGACUGGGCAGAGCUCAACACAGCGUGGCAAAGUGGCUGUGGCUAGACUGCCUCUCUGGAUUCCUCGUCACUCAGCAGGGCAUCUCUGAGAGGAAUGCC | 1.21
17 | UACGUAGGUGGUUUUCCCCUGAUAGUGCUAAGGGGACCUGGAAGGUUGGACUGGGCAGAGCUCAACACAGCGUGGCAAAGUGGCUGUGGCUAGACUGCCUCUCUGGAUUCCUCGUCACUCAGCAGGGCAUCUCUGAGAGAAAUGCC | 0.92
18 | UACGUAGGUGGUUUUCCCCUGAUAGUGCUAAGGGUGCCUGGAAGUUUGGACUGGGCAGAGCUCAACACAGCGUGGCAAAGUGGCUGUGGCUAGACUGCCUCUCAGGAUUCCUCGUCACUCAGCAGGGCAUCUCUGAGAGAAAUGCC | 1.31
19 | UACGUAGGUGGUUUUCCCCUGAUAGUGCUAAGGGUGCCUGGAAGUUUGGACAGGGCAGAGCUCAACACAGCGUGGCAAAGUGGCUGUGGCUAGACUGCCUCUCUGGAUUCCUCGUCACUCAGCAGGGCAUCUCUGAGAGAAAUGCC | 0.51
